According to PMC7655986:

Target: T1, recombinant Fc-construct of the Dsg2 extracellular domain, Q14126
T1 chain: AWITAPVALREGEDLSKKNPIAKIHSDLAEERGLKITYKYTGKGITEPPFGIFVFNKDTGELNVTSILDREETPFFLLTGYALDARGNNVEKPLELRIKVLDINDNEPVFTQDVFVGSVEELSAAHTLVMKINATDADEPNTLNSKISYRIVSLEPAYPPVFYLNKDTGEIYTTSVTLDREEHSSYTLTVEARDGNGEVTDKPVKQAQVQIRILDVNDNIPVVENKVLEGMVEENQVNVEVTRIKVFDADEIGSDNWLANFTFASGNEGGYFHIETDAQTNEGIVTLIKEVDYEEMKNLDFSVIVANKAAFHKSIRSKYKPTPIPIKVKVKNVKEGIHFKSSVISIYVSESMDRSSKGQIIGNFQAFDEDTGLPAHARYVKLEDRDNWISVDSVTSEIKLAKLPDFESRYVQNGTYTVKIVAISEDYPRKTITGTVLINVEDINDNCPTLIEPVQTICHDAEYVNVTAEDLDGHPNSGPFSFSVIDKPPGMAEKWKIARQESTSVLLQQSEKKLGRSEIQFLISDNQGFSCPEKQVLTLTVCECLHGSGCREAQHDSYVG
Experiment: atomic force microscopy (cell-free single-molecule force measurements); Dsg-Fc constructs (0.15 mg/ml) linked by a PEG linker to the cantilever tip and to mica sheets; Force Mapping mode; binding frequency and unbinding force; pulling speeds from 1 to 20 µm/s and modified Bells equation for the bond lifetime; 5 mM EGTA for 1 h lowered the binding frequency
Conditions: remark: other sources report otherwise

bond lifetime: 0.12 s
B1: recombinant Fc-construct of the Dsg2 extracellular domain, Q14126 50-609 (Fc fusion)
chain: T1 chain
